Measured values from patent publication US20190185565A1 (DEUTSCHES ZENTRUM FUR NEURODEGENERATIVE ERKRANKUNG EV, published 2019).
Changes are numbered by the printed parent chain.

B1: antibody clone 14D3 (antibody, V domains shown)
VH: EVKLLEFGGGLVQPGGSMRLSCAASGFTFTDFYMNWIRQPAGRAPEWLGLIRNKTKGYTTEYNRSVKGRFTISRDNTQNMLYLQMNSLRPEDTATYYCARIGVNNGGSLDYWGQGVMVTVSS
VL: DILIIQSPASLTVSAGARVTMSCKSSQSLLYSENNQDYLAWYQQKPGQFPKLLIYGASNRHTGVPDRFTGSGSGTDFTLTISSVQAEDLADYYCEQTYSYPYTFGAGTKLELK
B2: antibody clone 8A11 (antibody, V domains shown)
VH: B1 VH with F7S, R43K, R64T
VL: B1 VL
notes: Rat monoclonal IgG from a hybridoma
B3: antibody clone 7A12 (antibody, V domains shown)
VH: B1 VH with F7S, R43K, T55A, K56N, E61Q, R64P, S87T, P90G, V103I
VL: B1 VL with I5N, A17E, R18K, N34K, F49S, I54M, N59Y
notes: as for B2
B4: antibody clone 21A3 (antibody, V domains shown)
VH: B1 VH with F7S, R43K, T55A, K56N, E61Q, R64P, S87T, P90G, V103I
VL: B1 VL with I5N, A17E, R18K, N34K, F49S, I54M, N59Y
notes: as for B2
B5: antibody clone 1G6 (antibody, V domains shown)
VH: EVKLLESGGGLVQPGGSLRLSCVASGFTFTDFYMNWIRQPAGKAPEWLGLIRNKANGFTTEYNPSVKGRFTISRDNTQHMLYLQMNTLRAEDTATYYCARIGINNGGSLDYWGQGVMVTVSS
VL: B1 VL with I5N, A15T, A17E, R18K, N35K, S82N, S83I
notes: as for B2
B6: antibody clone 15C5 (antibody, V domains shown)
VH: B5 VH with L18M, V23A, N56Y, F58Y, H79D, N105Y
VL: B1 VL with I5N, A17E, R18K, M21V, N34S, N59Y, D91H
notes: as for B2
B7: antibody clone 14D8 (antibody, V domains shown)
VH: B5 VH with L18M, V23A, F58Y, E61V, H79N, A90G
VL: B1 VL with I5N, A15T, A17E, R18K, K24R, N34K, N59Y
notes: as for B2
B8: antibody clone 18F9 (antibody, V domains shown)
VH: B5 VH with L18M, A24V, P40A, A55V, F58Y, T59R, T77I, H79N
VL: B1 VL with I5N, A17E, R18K
notes: as for B2
B9: antibody clone 10C3 (antibody, V domains shown)
VH: B1 VH with F7S, R43E, A44T, R64P, V103T
VL: B1 VL
notes: as for B2

Target: T1, human wild-type TREM2 (membrane bound, isoform 1) stably overexpressed on HEK293 Flp-In cells (human)
T1 chain: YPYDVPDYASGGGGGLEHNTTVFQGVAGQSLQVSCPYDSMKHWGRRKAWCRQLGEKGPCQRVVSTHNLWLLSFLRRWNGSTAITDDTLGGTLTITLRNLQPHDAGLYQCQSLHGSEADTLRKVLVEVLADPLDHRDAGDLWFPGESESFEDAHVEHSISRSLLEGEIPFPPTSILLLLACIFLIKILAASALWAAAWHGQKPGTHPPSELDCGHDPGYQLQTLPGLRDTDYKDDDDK
Assay: cell-based or functional assay
For B1, the “increase of mature TREM2 in the membrane fraction (quantified immunoblot, normalized to immature TREM2)” value was ≤ 5 fold.

Target: T1, human wild-type TREM2 (membrane bound, …)
Assay: immunofluorescence on live HEK293 Flp-In cells expressing human full-length TREM2 against empty-vector cells; hybridoma supernatant diluted 1:2
Procedure: TREM2-reactive supernatants were subsequently screened for their ability to detect TREM2 on the cell surface of HEK293 Flp-In cells stably overexpressing human wild-type TREM2 (Kleinberger et al. 2014). HEK293 Flp-In cells either expressing human full-length TREM2 or empty vector (=control) were cultured in 96-well tissue culture plates, washed twice with PBS, blocked with 2% bovine serum albumin (BSA) in PBS and incubated with the respective TREM2-reactive supernatants (diluted 1:2 in blocking buffer) for 60 minutes on ice. Cells were subsequently washed three times with PBS, fixed with 4% paraformaldehyde for 20 min on room temperature and washed three times with PBS. Binding of TREM2-reactive supernatants was visualized using isotype-specific mouse-anti rat secondary antibodies followed by incubation with a goat anti-mouse tertiary antibody coupled to Alexa-488 (Life Technologies). 4′, 6-diamidino-2-phenylindol (Dapi, Life Technologies) was used as a nuclear counterstain. Images were acquired automatically using a Cytation multi-detection reader (Biotek).
B2: binds.
B3: binds.
B4: binds.
B5: binds.
B6: binds.
B7: binds.
B8: binds.
B9: binds.
